“And” between values parts separate entries of the source, which are not always exact repeats. Identical values can stand only once. Blank lines part the entries; values can stand above or below the molecule they belong to. Non-standard residues stand in square brackets, D forms with d. Residues, ends and D or L forms follow the SMILES beside them. No end group written: not given here. pT = C[C@@H](OP(=O)(O)O)[C@H](N)C(=O)O; pS = N[C@@H](COP(=O)(O)O)C(=O)O
What was measured:
[1] = target: purified protein complex containing 6His-FBXW7 and Skp1, Q969H0;P63208; assay: peptide array overlay, anti-6His detection, densitometry; conditions: read off a plot
DISC1, HEK293 cells = assay: Endogenous DISC1 protein level in HEK293 cells, western blot; type: cell-based, human; conditions: cycloheximide 50 μg ml^–1, Figure 1a, n=3
Protocol: HEK293 cells were sourced from ATCC (CRL-1573) and cultured as described in the manufacturer’s protocol. DMEM (SIGMA) supplemented with 10% fetal bovine serum, 2 mM L-glutamine, […] penicillin-streptomycin at 37 °C in a humidified atmosphere of 5% CO2. The cells were passaged at about 80% confluency. Cells were transfected with plasmid DNA using polyfect transfection reagent (Qiagen) according to the manufacturer’s instructions. HEK293 cells were treated with the pharmacological agents cycloheximide (C7698) and MG132 (M7449) (Sigma-Aldrich) or DISC1 disruptor peptides (custom synthesized by Severn Biotech) as described in the text.
Briefly, detergent-soluble proteins were isolated from cells by disruption in lysis buffer 20 mM Tris-HCl (pH 7.5), 150 mM NaCl, 1 mM Na2EDTA, 1 mM EGTA, 1% triton, 2.5 mM sodium pyrophosphate, 1 mM β-glycerophosphate, 1 mM Na3VO4, 1 μg ml^–1 leupeptin, 10 mM DTT with Roche protease inhibitor, phosSTOP (Roche, 04906837001). Detergent-insoluble proteins were removed by centrifugation at 10 000 g for 10 min, and the soluble fraction was retained. Cell lysates were adjusted to equal protein amount (1 μg μl^–1) using cell lysis buffer. Cell lysates normalized for the protein concentration were incubated with mouse IgG (Millipore, 12487) Protein A agarose beads for 2 h at 4 °C. […] The complexes were analyzed on SDS PAGE. […]

Skp1-FBXW7 complex = target: T1, Skp1-FBXW7 complex (Homo sapiens, UniProt Q969H0); assay: Isothermal titration calorimetry of DISC1 peptides; type: binding; conditions: for Kd: NANO ITC, 20 mM HEPES-Na (pH 7.4), 200 mM NaCl, 2 mM β-mercaptoethanol, mean ± s.d. from two to three independent measurements, read-out: dissociation constant (KD)
T1 construct: human FBXW7 (residues 263–707); His6 (N, cleaved yes); made in house; host or cells: Escherichia coli
Protocol: Amino-terminal His6 tagged human FBXW7 (residues 263–707) and truncated Skp1 (Schulman et al., 2000) were co-expressed as a dicistronic message in Escherichia coli. The Skp1-FBXW7 complexes were purified by Ni2+-nitrilotriacetic acid (NTA) affinity chromatography followed by tobacco eth virus (TEV) protease cleavage of the His6 tag, and by anion exchange and gel filtration chromatography. For crystallization, the Skp1-FBXW7 complex was concentrated to 48 mg ml^–1 by ultrafiltration in 20 mM HEPES-Na (pH 7.4), 200 mM NaCl and 5 mM dithiothreitol (DTT). The DISC1 peptides were synthesized chemically and purified by HPLC.
All measurements were performed at 25 °C with a NANO ITC System (TA Instruments, New Castle, DE, USA). Protein samples were dialyzed against a solution containing 20 mM HEPES-Na (pH 7.4), 200 mM NaCl, and 2 mM β-mercaptoethanol. Typically, the concentrations of Skp1-FBXW7 and DISC1 peptides were […] and 1 mM, respectively. Titration data were analyzed using the TA Nano Analyze software, and the reported dissociation constants and their standard deviations were derived from two to three independent measurements.
To test whether phosphorylation of both the Thr198 and Ser202 sites in DISC1 is required for binding to FBXW7, we used isothermal titration calorimetry (ITC) to measure the binding affinity of various phosphorylated DISC1 peptides to the Skp1-FBXW7 complex (Supplementary Figure 5). […] Thus, specific interaction of DISC1 with the Skp1-FBXW7 complex requires simultaneous phosphorylation at Thr198 and Ser202 within the DISC1 PD motif.

[2] = system: purified protein complex containing 6His-FBXW7 and Skp1; assay: Peptide array overlay with 6His-FBXW7/Skp1, substitution and truncation analysis; type: binding, human; conditions: for binding potential for the FBXW7 complex vs dually-phosphorylated control sequence: densitometry of 6His probe
Text: Peptide libraries were produced by automatic SPOT synthesis and synthesized on continuous cellulose membrane supports on Whatman 50 cellulose membranes using Fmoc-chemistry with the AutoSpot-Robot ASS 222 (Intavis Bioanalytical Instruments, Köln, Germany) as previously described.[17] Phosphorylation of peptide array peptides by constitutively active GSK3 (14-306, Millipore UK) was undertaken as previously described.[18] Phosphorylation was detected using a phospho-serine specific antibody (ab9332, Abcam, UK).
Figure 2 FBXW7 binds DISC1 via a PD motif to regulate turnover of DISC1. (a) HEK293 cells were transfected with FLAG-tagged FBXW7 or FLAG-tagged FBXW7 without the F-Box substrate-binding domain (Δ-F). Lysates were prepared and blotted for DISC1, c-MYC, FLAG and GAPDH. Relative levels of DISC1 expression were calculated (right hand panel). *=P<0.05 as measured by Student’s t-test, n=3 (b) HEK293 cells were transfected with FLAG-FBXW7 and GFP-DISC1 (upper panels) or FLAG-FBXW7 and V5-DISC1 (lower panels). FLAG was immunoprecipitated from cell lysates and blotted for FLAG, GFP and V5. (c) HEK293 cells were transfected with FLAG-DISC1. FLAG was immunoprecipitated from cell lysates and blotted for FLAG and endogenous FBXW7. (d) and (e) Peptide arrays of sequences containing the DISC1 PD were overlayed with a purified protein complex containing 6His-FBXW7 and Skp1. Arrays were then probed for His tag. (f) Sequences of known FBXW7 substrates contain a PD that is also present in DISC1.
Figure 3 Substitution analysis pinpoints novel binding motifs for FBXW7. (a) Peptide array grids containing substitution of residues within the core binding motif domain ^197PTPPGSH^202 (with a range of native and non-native residues) were overlaid with a purified protein complex containing 6His-FBXW7 and Skp1. mD and mE are N-methyl aspartic acid and N-methyl glutamic acids respectively. (d) and (e) are the D-forms of aspartic acid and glutamic acid. (b) Arrays were then probed for 6His and spots that were over 200% of the control identified by densitometry.

[3] = target: T2, human FBXW7 (residues 263-707) (human, UniProt Q969H0 263-707); assay: crystal structure; Skp1-FBXW7 mixed with a twofold molar excess of the DISC1 peptide; crystallised from 100 mM HEPES-Na (pH 7.4), 1.2 M Li2SO4, hanging drop, 4 °C; one complex in the asymmetric unit; conditions: both partners purified
T2 construct: human FBXW7, residues 263-707; The FBXW7 chain of m1, written alone for the pairs inside the crystal structure; also called Fbw7; source: E. coli, co-expressed with truncated Skp1, purified as the complex; not shown: His6, N-terminal, cleaved

[4] = target: Skp1-FBXW7 complex (human FBXW7 residues 263-707 with truncated Skp1, His6 tag cleaved) (UniProt Q969H0); assay: ITC; 25 °C, NANO ITC System; 20 mM HEPES-Na (pH 7.4), 200 mM NaCl, 2 mM β-mercaptoethanol; Skp1-FBXW7 and DISC1 peptides typically 50 mM and 1 mM (so in the source); two to three independent measurements
[5] = ITC, 25 °C, pH 7.4, singly phosphorylated peptides

T1 sequence (Q969H0 263-707, one chain of several): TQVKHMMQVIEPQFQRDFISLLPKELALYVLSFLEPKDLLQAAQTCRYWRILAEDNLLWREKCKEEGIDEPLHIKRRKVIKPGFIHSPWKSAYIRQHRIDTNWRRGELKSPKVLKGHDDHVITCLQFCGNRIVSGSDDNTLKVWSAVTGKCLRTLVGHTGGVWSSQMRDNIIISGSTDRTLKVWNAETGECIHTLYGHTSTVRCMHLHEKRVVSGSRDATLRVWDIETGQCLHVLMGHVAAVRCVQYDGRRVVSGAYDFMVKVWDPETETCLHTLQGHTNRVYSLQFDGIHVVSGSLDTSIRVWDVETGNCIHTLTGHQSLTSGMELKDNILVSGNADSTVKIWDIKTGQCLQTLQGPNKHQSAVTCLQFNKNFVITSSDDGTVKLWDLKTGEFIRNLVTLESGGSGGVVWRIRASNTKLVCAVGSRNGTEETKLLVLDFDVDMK
T2 sequence (Q969H0 263-707): as the sequence (Q969H0 263-707, one chain of several) above

Molecule: DISC1 peptide (residues 197-203, phosphorylated at Thr198 and Ser202) pT198E; pS202mD (N-methyl Asp)
percent of parent [1]: 230 % of control

Molecule: DISC1 peptide (residues 197-203, phosphorylated at Thr198 and Ser202) pT198E; pS202d (D-Asp)
percent of parent [1]: 210 % of control

Molecule: C[C@@H]1C[C@@H]([C@H](O)CC2CC(=O)NC(=O)C2)C(=O)[C@@H](C)C1 [cycloheximide, reference compound]
endogenous DISC1 level after cycloheximide (DISC1, HEK293 cells): rapidly decreased

Molecule: C[C@@H](OP(=O)(O)O)[C@H](NC(=O)[C@@H]1CCCN1)C(=O)N1CCC[C@H]1C(=O)N1CCC[C@H]1C(=O)NCC(=O)N[C@@H](COP(=O)(O)O)C(=O)N[C@@H](Cc1c[nH]cn1)C(=O)O [DISC1^197–203/pT198/pS202] (H-P[pT]PPG[pS]H-OH)
Kd (Skp1-FBXW7 complex; ITC, 25 °C): 17 ± 2 µM

Molecule: DISC1 peptide (residues 197-203, phosphorylated at Thr198 and Ser202) pT198d (D-Asp); pS202mE (N-methyl Glu)
percent of parent [1]: 220 % of control and 190 % of control

Molecule: PTPPGSH
association of FBXW7 complex / core binding sequence ([2]; phosphorylation and truncation analysis): minimum core binding sequence within the PD domain

Molecule: GmDPPGmEH [I14, substituted DISC1 PD core peptide GmDPPGmEH]
binding potential for the FBXW7 complex vs dually-phosphorylated control sequence [2]: more than a twofold increase in binding potential

Molecule: GmEPPGmEH [I11, substituted DISC1 PD core peptide GmEPPGmEH]
binding potential for the FBXW7 complex vs dually-phosphorylated control sequence [2]: more than a twofold increase in binding potential

B1: DISC1 peptide (residues 193-207, phosphorylated at Thr198 and Ser202) (peptide, UniProt Q9NRI5 193-207, looked up)
peptide: PEVPP[pT]PPG[pS]HSAFT
notes: printed residues: Pro193, Glu194, Val195, Pro196, Pro197, Thr198, Pro199, Pro200, Gly201, Ser202, His203; also called 15-residue core peptide; source: synthetic peptide, purified by HPLC
binding result [3]: binds
Kd [4]: 1 µM

More lines, main results first:

measurable enthalpy signal / ITC signal (Skp1-FBXW7 complex; ITC, 25 °C, pH 7.4; singly phosphorylated peptides; pS202)): No ITC signal
Molecule: DISC1^193–207/pS202: singly phosphorylated DISC1 peptide (PEVPPTPPG[pS]HSAFT)
measurable enthalpy signal / ITC signal (Skp1-FBXW7 complex; [5]): neither of the singly phosphorylated DISC1^193–207/pT198 and DISC1^193–207/pS202 peptides gave a measurable enthalpy signal

Kd (Skp1-FBXW7 complex; ITC, 25 °C): 1 ± 0.2 µM
Molecule: CC(C)[C@H](NC(=O)[C@H](CCC(=O)O)NC(=O)[C@@H]1CCCN1)C(=O)N1CCC[C@H]1C(=O)N1CCC[C@H]1C(=O)N[C@H](C(=O)N1CCC[C@H]1C(=O)N1CCC[C@H]1C(=O)NCC(=O)N[C@@H](COP(=O)(O)O)C(=O)N[C@@H](Cc1c[nH]cn1)C(=O)N[C@@H](CO)C(=O)N[C@@H](C)C(=O)N[C@@H](Cc1ccccc1)C(=O)N[C@H](C(=O)O)[C@@H](C)O)[C@@H](C)OP(=O)(O)O [DISC1^193–207/pT198/pS202] (H-PEVPP[pT]PPG[pS]HSAFT-OH)

measurable enthalpy signal / ITC signal (Skp1-FBXW7 complex; ITC, 25 °C, pH 7.4; singly phosphorylated peptides; pT198)): No ITC signal
Molecule: DISC1^193–207/pT198: singly phosphorylated DISC1 peptide (PEVPP[pT]PPGSHSAFT)
measurable enthalpy signal / ITC signal (Skp1-FBXW7 complex; [5]): neither of the singly phosphorylated DISC1^193–207/pT198 and DISC1^193–207/pS202 peptides gave a measurable enthalpy signal

percent of parent [1]: 250 % of control
Molecule: DISC1 peptide (residues 197-203, phosphorylated at Thr198 and Ser202) P197G; pT198d (D-Asp); pS202mE (N-methyl Glu)

percent of parent [1]: 210 % of control and 280 % of control
Molecule: DISC1 peptide (residues 197-203, phosphorylated at Thr198 and Ser202) pT198e (D-Glu); pS202mE (N-methyl Glu)

Kd [4]: 17 µM
Molecule: P[pT]PPG[pS]H [DISC1 peptide (residues 197-203, phosphorylated at Thr198 and Ser202)]

From article PMC5984089, “FBXW7 regulates DISC1 stability via the ubiquitin-proteosome system” (Molecular Psychiatry, 2017)
